What follows are substances tested against Human FcRn (neonatal Fc-receptor), C-terminally biotinylated (human) (UniProt P55899) (assay: SPR; pH 6.0).

Substance | Kd
GDob1 IgG1ΔG236 (from UniProt P01857) | 25 nM
GDob1 IgG2 (from UniProt P01859) | 39 nM
GDob1 IgG2 + G236 (from UniProt P01859) | 41.8 nM
GDob1 IgG1 (from UniProt P01857) | 23.7 nM

From article PMC6517591
